Assay: soluble on expression in E. coli; label from the status in PepcDB or PDB records

Sequence | soluble on expression in E. coli
MDIDECESGAHQCSEAQTCVNFHGGYRCVDTNRCVEPYIQVSENRCLCPASNPLCRE | soluble
MDTSQKYRSNNEVDSPQIEHDKQALPSIESLYWGLQQNQQIQGIEQTGEPNGDNQPPQLVIDQLSYDQQQQQPKQNCFDTHGNMDDNRGLYNLPQGAENGSGHLVATESHQLHPPNYNLQQAQTPPPTRHSQYVDAAPQAYGSGQLVPENQRQPESAPDRPYQIMNVGCNPQSAQQHAQMEIPTMSHQLIGTCHNWQSGSQQGTSQNRKDFAGMQSCYGKDQHHQSALNGYHQLQAQPNLYPQHVSNQRPQWAMDQLGYYQQHQQQGPTWSDQNGNEGDNGGLYNHPQGAENGSGHLAATESHQLLPPSNNLQQVQIPAPTRHSQYVGASHLAYGSGQLVPENQLQPEPAPDRSYRKMNVGCNSQYAQQHAQMDQVIGTCHNCQSDSQQGTSQNRDNLAGMKGCCVKDQYHEPAPSGYHPPQAQSNCYPNHPPNPNMNAGDQDRQHVQLNFYTDPGFQQNSHVPYEMQQGFQTTGMQGSYQQNNQPELLFDSNNGNQTVNNAPNGNYQEPVYPLLQEGPTWNNNDNHDYFPSDDSMSQTSQEPVSVESIRKKTKRAKNKLEARKSLQKKKDDLKASRKSWEEVKINHNNILSSNNSNEENIKTAFDQVLYPCFTNQQVIGTFNIIRSYDEVQEGFAQFENDKQNIISKVDYLMKTDRNLKKLRMAKEVSEKQWEQFETDKKNRKEDDKKNKINGGNKLNGKTKIVSSITIATRCSRSKDKKETDAFKHDAKVLKFESSKQTQIKLCLKKYCDKFYPGVRMLLQHNWKFLRDNALHSGQSVQLEKLIECLKTFHLTEHAEKEHNLENS | not soluble
MSLSDDIKVLGISGSLRSGSYNSAALQEAIGLVPPGMSIELADISGIPLYNEDVYALGFPPAVERFREQIRAADALLFATPEYNYSMAGVLKNAIDWASRPPEQPFSGKPAAILGASAGRFGTARAQYHLRQTLVFLDVHPLNKPEVMISSAQNAFDAQGRLLDDKARELIQQQLQALQLWVREGGSHHHHHH | soluble
MIVPPPEELTGARVLAYALIDESTPYSGRITLYVDGELIGPVPRLVIALNNYGPDDYLLLYCNENWDVIGAGGHASLVAAKESANIAYPGVASRWQDVA | not soluble
MTWQVQRRKWKLNLIAELESRVLAEPVPLPADPMELKNLEYRPVKVRGCFDHSKELYMMPRTMVDPVREAREGGLISSSTQSGAYVVTPFHCTDLGVTILVNRGFVPRKKVNPETRQKGQIEGEVDLIGMVRLTETRQPFVPENNPERNHWHYRDLEAMARITGAEPIFIDANFQSTVPGGPIGGQTRVTLRNEHLQYIVTWYGLSAATSYLWFKKFLRGTPGV | not soluble
GPGSMSGTLLKEELLQLDNKRRSIMRDIEEAMTFLNSTPVGLRGSLVDSEGFPRDDCDLYAVRRARHTVNCGHNDLKSIEATIHEKLSQLHEECRGEAEEQMQRDKMKKKSEDDQRRRDEQKQVMSSKEPFVRVVDVATGSPAEEGGLICGHLIVQYGDVDAEKVLEGGFGEMARVTSSYEGQMLRVWVRSPSDDDCGGARELFIVPQRWRGEGLLGCTFEPMKLN | soluble
MYTAEQKARIKWACRRGMLELDVVIMPFFEECFDSLTESEQDDFVALLESDDPDLFAWVMGHGRCENLGLAAMVDKIVAHNLSKVRLEHHHHHH | soluble
MKVLDSRDFAKVKAIAIERASYRNIGALAVYIGSMTGMRISEVLALTWPDIDTKLCVIHVTRSWDHLYGTGFKPTKTDSSVRDIEISPSVIELLNKIHQEQAASYLRTGYRDEDQMIMRDPRHNVITDSACNKALHVIQNKAGIPEDKQITFHGLRHSHVSYLISKGVDIYYISKRLGHSDVTITMKVYGHLLDSQRKQEAHKAVLFMDQILEHHHHHH | not soluble
MKPLSSAIAAALILFSAQGVAEQTTQPVVTSCANVVVVPPSQEHPPFDLNHMGTGSDKSDALGVPYYNQHAM | soluble
MGSDKIHHHHHHMILYFSGTGNSRYVARKIAQELNDELISLNQLIKDEKTDELISADKPFIFVCPTYAWRLPIVVTDFIKETKFLGSNRVYFVMTCGGDTAKSINYIQKLCKYKEWQLKGMAEIKMPENYIALFSTTDKETSKQMIKEADKQIYRIISDIRNENEFETITPSGLGGTIKSGIINTVFYKTIISAKGFHYTDKCIGCGKCVELCPLNNINLKNKKPVWKNNCTHCMACICGCPTEAIEYKNKTQNRERYYLE | not soluble
MGSDKIHHHHHHMSTINNRNPKISVLMSIYKENSLYVRQAIDSILNQSFGDFEFLIYNDNPEDFILDKLVLEIARKDSRIQYQRNEKNIGLAATLNRQICVAKGEYLARMDADDISLPDRFIMQVEYLDRNTNIAVLGTWAKIIDKEGQVISSASLKTGYNNIIACAMCDSPLFHPSVMIRKEFLQLNGLSYNEDFSCAQDYELWSRILFEKGGYIDNLSVYLIYYRVTTSQISSIKQQQQIYNSLLVRRNNISFFLNKYSIDLPRKITKTDVCNLINRISEFKEESSTHKIYVNILFMYCMSLPRLEKIILLIKYVCVFYSEFSLKQMCLLVASSFFMRKFPLCSLNIMLH | not soluble
MGSDKIHHHHHHMQHDDQPLPQTAPHGRVISHLGETDTDDATLLASIKTRLRQHNDRSAAEMEHLLQLVDALWAMELGRFLLRNRGLNANWTHQLVTYQAGTLVQQTTPALEYELFEKTPAVLATRERFGIFRTQLQALLRPGMTLASLPCGWMADVLSLDYGQCPDVRLIGIDLDPQALDGALRLAQQYGLEGQLTLQREDAWAPGEPNSVDVLSSNGLNLYEPDDARVIALYRAFFDRLRPGGTLVASFLTPPPSLCAESPWKLDLIDGAALVLQSQVFIDVVQARWASFRTHAQTRTQLESAGFTDVRFIDDRASIFPTVIARKPMSD | not soluble
MQYPINEMFQTLQGEGYFTGVPAIFIRLQGCPVGCAWCDTKHTWDKLSDREVSLFSILAKTKESDKWGAASSEDLLAVINRQGYTARHVVITGGEPCIHDLMPLTDLLEKSGFSCQIETSGTHEVRCTPNTWVTVSPKVNMRGGYDVLSQALERANEIKHPVGRVRDIEALDELLATLSDDKPRVIALQPISQKEDATRLCIETCIARNWRLSMQTHKYLNIA | not soluble
MGSDKIHHHHHHMMKKKWYIVLTMSGYEEKVKENIEKKVEATGIKNLVGRIVIPEEVVLDATSPSERLILSPKAKLHVNNGKDVNKGDLIAEEPPIYARRSGVIVDVKNVRKIVVETIDRKYTKTYYIPESAGIEPGLRVGTKVKQGLPLSKNEEYICELDGKIVEIERMKKVVVQTPDGEQDVYYIPLDVFDRDRIKKGKEVKQGEMLAEARKFFAKVSGRVEVVDYSTRKEIRIYKTKRRKLFPGYVFVEMIMNDEAYNFVRSVPYVMGFVSSGGQPVPVKDREMRPILRLAGLEEYEEKKKPVKVELGFKVGDMVKIISGPFEDFAGVIKEIDPERQELKVNVTIFGRETPVVLHVSEVEKIE | not soluble
MKKLSGIIVLLLAGAALYLALKTSPIDPLAWDAPAAPQMTGVLEPNDTLMKAELLGQGQLHGPEDTAVDSQGRVYAGLADGRVVRLDASGKVETFVDTGGRPLGMDFDAAGNLILADAWKGLLRIDPQGKVETLATEADSVPFAFTDDLDIASDGRIYFSDASSKFHQPDYILDLLEARPHGRLLRYDPSTGKTEVLLKDLYFANGVALSANEDFVLVNETYRYRITRYWLKGEKAGQHEVFIDNLPGLPDNLQGDRKGTFWVALPTPRKADADFLHRHPWLKAQLAKLPRMFLPKPTAYGLVIAIDEQGRIVRSLHDTSGHHLRMITSAKPVGDQLYFGSLENDRIGRLAIPLEHHHHHH | soluble
EMVLLPAPQIPLIMKIMKNHTPTWLPGVPTLYEKIVAEATAKGVEIKGIRNSFSGASTLPVRTVEDWENLTGGLLVEGYGLTETSPVLCGNPMNGNRRPGYIGVPFPDTEIRIANPDNLDETMPDGEAGEVLARGPQIFQGYLNKPEATAATFHGDWFRTGDMGVMEEDGFIRLVSRIKEIIITGGFNVYPAEVEEALIAHPDVDDAAVVGRPRKDGSEDVVACIVLKDGAALDPEGLKTHCRKLLTRYKVPRTFYHFEALNKDQLGKVRRREVQQTLLERLGEK | not soluble
MILDADIKTQLSQYLQLMENDILLKVSAGNDDVSKDMLALVDELATMSSKITVEKVELERTPSFSVNRPGEDTGVVFAGIPLGHEFTSLVLALLQVSGRAPKVEQKLIDQIKNIQGEYHFESYISLSCHNCPDVVQALNVMSVLNSGITHTMIDGAAFKEEVESKDIMAVPTVFLNGESFGSGRMTLEEILAKMGNGPDASELSDKDPYDVLVVGGGPAGASAAIYAARKGIRTGIVAERFGGQVMDTMGIENFISVKRTEGPKLVASLEEHVKEYDIDVMNLQRAKRLEKKELIEVELENGAILKSKSVIVSTGARWRNVGVPGEAEFKNKGVAYCPHCDGPLFTGKDVAVIGGGNSGIEAAIDLAGIVKHVTVLEFMPELKADAVLQERLNSLPNVTVLKNVQTKEITGTDKVNGISYIDRETEEVHHVELQGVFVQIGLVPNTDWLGETVERVRGEIVTDKHGATNVPGVFAAGDCTNNPYKQIIISMGSGANAALGAFDYLIRN | not soluble
MGSDKIHHHHHHMMHDDQVNIDIDIARKMIRDQFPQYRHEDITSVGSSGTVNAIFRIGSKSAARFPLRAMNPTECADMLRSEAAAMVEIGKHCLFPTPQPIGIGEPGPRYPMPWALQTWIEGEVATPHGLSGSTMFALDLARLVASLRQADTRGRRFDGQGRGGHLPDHDDWMAVCLENSEGLLDVARLRDLWARLRELPCAGSVVMSHKDLIPANLLVQGERLVGVLDGGSFGPADPSLDLVVGWHLLDRERRAAFRSGLQVEDLLWKRGAAWAFQQAMGLVWYYRRTNRAMSALGRSTLSRILADPDI | not soluble
SLNPLDSFKSQVEANVTGLGADKDIQALSRIWSRETNRNGYTYNYSWLGRPIIQYPQDIMAMQELIWSIQPDLIIETGIAHGGSLIFSASMLELNAISGGPQDAEVLGIDIDIRQHNREAIEAHPMVKRISMIQGSSIAPEIIEQVKAKAEGKQKILVCLDSNHTHDHVLAELEAYAPLTSVGSYCVVFDTVVEDLPDEMFGDRPWGVGNNPKTAVWEYLKTHPEFEIDKSIQHKLLITVAPDGYLKRLG | soluble
MGSDKIHHHHHHMAILTITKQFGSGGGEIGSAVANLLGYEYIPLKRVFEEAGQAGNRIKKLADEVSKSVPGLWERTDWSFLAFVAFSQSTILNYALQNNIVVMTRGGNMLLKSIPHALRILVTAPFDVRVRRIMEREEISEEIAVMMAKKADREMAVTIQQIYGTNWMDPTEYDQVIDTSKQNWNEIARSLKDSLMAKEKDFTAEAQKILNMKALATYIKVKIMTSPAFITPTLEVEMKGDILVISGVVRNPDQHKRIEEEVKKLAGDRYVEFHIHYRGSWPFRGI | not soluble
MGSDKIHHHHHHMFDPTLLHIINAHSRNPHYHKKFPIILFWSQKSGCTSLAKWFFYQIDLLQTALNYSPFIHNYEYDIYKNAPAYSLRLGIALREKQKETFKLVRNPYKRAVSSFVSLIAPPYIENPEWKPIRKFLYQDENSSKGLSFKQFLYYLLINGAQANSINPHFTQQYIADEEKYVTNYIYLENFNQDMKALEKRFELKTAPINEFSTSWHHQTPSMIYKGNFSESDITDPLFPRLPTFESFYDTECIQLVQTIFQNDFNTYKYSKEYPY | not soluble
GMSLPHLSSGEVASVLPLGKQLTQTPSAALFKEHRLEVMRMVLPAGKQVGSHSVAGPSTIQCLEGEVEIGVDGAQRRLHQGDLLYLGAGAAHDVNAITNTSLLVTVVLVDRGGS | soluble

From the DeepSol protein solubility set
